Measurements: PMC2172719 (The Journal of Cell Biology, 2003)
Each block holds one binder with its values, some of them ahead of it.

Legend:
His-Ubc13 = biological target: T1, His-Ubc13 (yeast, UniProt P52490 1-153); assay: SEC
T1 sequence: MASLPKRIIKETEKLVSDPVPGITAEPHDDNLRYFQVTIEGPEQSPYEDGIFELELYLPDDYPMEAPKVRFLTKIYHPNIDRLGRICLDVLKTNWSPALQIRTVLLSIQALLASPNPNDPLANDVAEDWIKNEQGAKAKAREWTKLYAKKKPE

SEC = biological target: the molecule itself; assay: SEC

binding result (His-Ubc13): binds
B1: His-Mms2 (natural protein)
chain: MSKVPRNFRLLEELEKGEKGFGPESCSYGLADSDDITMTKWNGTILGPPHSNHENRIYSLSIDCGPNYPDSPPKVTFISKINLPCVNPTTGEVQTDFHTLRDWKRAYTMETLLLDLRKEMATPANKKLRQPKEGETF

B2: His-tagged p97 ΔN (domain or fragment)
chain: not shown
stoichiometry N (SEC): 6
